Entries after “also recorded” stand apart in the source; their conditions may differ.
Experiments:
[1] = PK study in serum of cynomolgus monkeys; format: in vivo; details: 5 mg/kg i.v. bolus; for AUC 0-t: t = 28 days
Description: 2 cynomolgus monkeys per group (one male, one female) were dosed at 5 mg/kg with an i.v. bolus of protein at time 0. Blood samples were taken for PK analysis at the following timepoints: pre-dose, 0.25 hr, 0.5 hr, 1 hr, 4 hr, 8 hr, 24 hr, day 3, day 5, day 7, day 10, day 12, day 14, day 21, day 28.
At least 0.8 mL blood samples were collected from a cephalic or saphenous vein at sampling time points from the two animals. For samples collected within the first hour of dosing, a ±1 minute deviation in sample collection time was acceptable. For the remaining time points, samples that were taken within 5% of the scheduled time are acceptable. All blood samples were collected into commercially available tubes containing coagulant. The tubes containing blood samples remained at room temperature for 30 minutes before centrifugation. The samples were centrifuged at 4° C. for 10 minutes at 1500×g within one hour of collection. About 400 μL serum per time point was collected post centrifugation. The samples were then quickly frozen over dry ice and kept at −60° C. or lower until transferred in dry ice for analysis. All samples were uniquely identified to indicate origin and collection time.
The concentrations of analyte in serum were determined using a bioanalytical ELISA method. 96-well ELISA plates were coated overnight at 4° C. with 1 μg/ml Goat anti-Human IgG in Carbonate-bicarbonate buffer. After wash and blocking, serial diluted plasma samples were added and then biotin labeled Goat anti-human IgG (0.0625 ug/mL) was used as detection antibody. HRP-Streptavidin and TMB substrate were used for colour development. The reaction was stopped after approximately 5-10 minutes through the addition of 2M HCl. The absorbance was read at 450 nm and 540 nm using a microplate spectrophotometer (SpectraMax® M5e). The OD value of the samples were substituted into the standard curve to obtain the plasma concentration. The detection limit of this ELISA method LLOQ for Fc+Fc is 1 ng/mL.
The serum concentration of ARQ-234 in monkeys was subjected to a non-compartmental pharmacokinetic analysis by using the Phoenix WinNonlin software (version 8.1, Pharsight, Mountain View, CA). The linear/log trapezoidal rule was applied in obtaining the PK parameters.

U937-CD200R cells = assay: Cell binding to U937-CD200R cells by flow cytometry; details: 1, 4 and 24 hours at 37° C., anti-human IgG secondary, compared to DS-155
Description: U937 cells were re-suspended with a density of 0.1 million cells per test with 50 μL FACS buffer (1×PBS+2% FBS).
Treatment with CD200-Fc proteins (50 μL) was performed starting from 10 μg/mL with 3-fold dilutions up to 10 concentrations with FACS buffer and incubated for 1-hour, 4-hours and 24-hours at 37° C. At the end of each time point, cells were collected and washed. 10 μg/mL of anti-human secondary antibody was added and incubated for 30 minutes at 4° C. Cells were washed post incubation and stained to check viability (1 μL dye per million cells per mL 1×PBS) for 20 minutes at 4° C. Cells were washed and fixed with Fixation buffer (100 μL per test) at 4° C. for 20 minutes. Post incubation, cells were washed and the pellet was re-suspended in FACS buffer (100 μL per test) for data acquisition on the flow cytometer.
For the 24-hour time point, treatment with CD200-Fc protein was performed with cell culture media. Wash step=addition of 200 μL FACS buffer and centrifugation at 1400 RPM.
The binding of ARQ-234 to U937-CD200R cells was compared to a wild type control CD200-Fc (DS-155) at 1, 4 and 24 hrs at human physiological temperature (37° C.) and binding was detected using flow cytometry with an anti-human IgG antibody.

## ARQ-234: mutated human CD200-Fc fusion protein: CD200 K130Y, I131Y directly fused to IgG4 Fc S228P, M428L, N434S
[1]; serum
  average half-life in the two animals tested: 15.44 days
[1]; animal #3001 (M)
  Cl_obs: 7.45 mL/day/kg
  MRTINF_obs: 17.3 days
  Vss_obs: 0.129 L/kg
  AUC 0-t: 12927 µg·h/mL
[1]; animal #3001 (M), serum
  Cmax: 127 µg/mL
  t1/2: 12.4 days
[1]; animal #3002 (F)
  Cl_obs: 6.56 mL/day/kg
  MRTINF_obs: 25.3 days
  Vss_obs: 0.166 L/kg
  AUC 0-t: 12259 µg·h/mL
[1]; animal #3002 (F), serum
  Cmax: 124 µg/mL
[1]; animal #3002 (F), serum, footnote: half-life not accurate (AUC_%Extrap_obs >20% or Rsq_adjusted <0.9)
  t1/2 (h): 443^ h
U937-CD200R cells
  binding to U937-CD200R cells: superior binding of ARQ-234 to CD200R-expressing cells compared to DS-155; also recorded: more potent target engagement compared to DS-155

From patent US20260116946A1, “NOVEL CD200 FUSION PROTEINS” (DUCENTIS BIOTHERAPEUTICS LIMITED, priority 2022, published 2026)
